Patent US20220227830A1, “QD DOSING OF GIP RECEPTOR AGONIST PEPTIDE COMPOUNDS AND USES THEREOF” (Takeda Pharmaceutical Company Limited, priority 2020, published 2022)
Starred links: 1 amine or outer side, 2 acyl side, 3 side chain; linkers in the order of their positions; H or OH if unused. Non-standard residues stand in square brackets, D forms with d. Groups on a side chain read outwards from the residue. *: point of attachment. C15 diacid = O=C(O)CCCCCCCCCCCCCC(=O)*; γGlu = O=C(O)[C@H](CCC(=O)[*:2])N[*:1]; AEEA = NCCOCCOCC(=O)O; Aib = CC(C)(N)C(=O)O

T1: full-length human GIPR with an N-terminal FLAG tag, overexpressed on HEK-293T cells (human, UniProt P48546 22-466)
T1 sequence (looked up): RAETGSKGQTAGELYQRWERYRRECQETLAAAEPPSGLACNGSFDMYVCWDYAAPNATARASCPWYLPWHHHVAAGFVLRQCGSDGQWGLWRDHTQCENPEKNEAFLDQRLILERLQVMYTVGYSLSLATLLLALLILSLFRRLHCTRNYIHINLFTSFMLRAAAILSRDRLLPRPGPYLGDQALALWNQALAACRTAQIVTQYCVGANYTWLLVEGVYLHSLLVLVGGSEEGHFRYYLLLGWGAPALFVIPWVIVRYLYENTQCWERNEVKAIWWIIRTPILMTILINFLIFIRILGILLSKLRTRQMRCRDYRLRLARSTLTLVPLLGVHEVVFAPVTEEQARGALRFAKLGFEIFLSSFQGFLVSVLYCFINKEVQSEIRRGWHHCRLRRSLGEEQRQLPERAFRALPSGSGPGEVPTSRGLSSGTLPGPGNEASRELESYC

B1: Compound 157 (peptide)
peptide: YXEGTFISDYSIAXDRXAQXDFVNWLLAQSPSSGAPG
modifications: N-terminal Me (Me-Tyr1); Aib at 2, 17, 20; Km = Lys(R) at 14, linker printed GS (read as G5 = GGGGG), lipid C15DA (C15 diacid); C-terminal OH
B2: Compound 158 (peptide)
peptide: YXEGTFISDYSIAXDRXAQXDFVNWLLAQSPSSG
modifications: N-terminal Me (Me-Tyr1); Aib at 2, 17, 20; Km = Lys(R) at 14, linker printed GS (read as G5 = GGGGG), lipid C15DA (C15 diacid); C-terminal OH
B3: Compound 159 (peptide)
peptide: YXEGTFISDYSIAXDRXAQXDFVNWLLAQSPG
modifications: N-terminal Me (Me-Tyr1); Aib at 2, 17, 20; Km = Lys(R) at 14, linker printed GS (read as G5 = GGGGG), lipid C15DA (C15 diacid); C-terminal OH
B4: Compound 160 (peptide)
peptide: YXEGTFISDYSIAXDRXAQXNFVNWLLAQSG
modifications: N-terminal Me (Me-Tyr1); Aib at 2, 17, 20; Km = Lys(R) at 14, linker printed GS (read as G5 = GGGGG), lipid C15DA (C15 diacid); C-terminal OH
B5: Compound 164 (peptide)
peptide: YXEGTFISDYSIALDRXAQXNFVNWLLAQSPSSGAPPPS
modifications: N-terminal Me (Me-Tyr1); Aib at 2, 20; Km = Lys(R) at 17, linker printed GS (read as G5 = GGGGG), lipid C15DA (C15 diacid); C-terminal NH2
B6: Compound 165 (peptide)
peptide: YXEGTFISDYSIALDRXAQXDFVNWLLAQRPSSGAPPPS
modifications: N-terminal Me (Me-Tyr1); Aib at 2, 20; Km = Lys(R) at 17, linker printed GS (read as G5 = GGGGG), lipid C15DA (C15 diacid); C-terminal OH
B7: Compound 166 (peptide)
peptide: YXEGTFISDYSIALDRXAQXDFVNWLLAQSPSSGAPPPS
modifications: N-terminal Me (Me-Tyr1); Aib at 2, 20; Km = Lys(R) at 17, linker printed GS (read as G5 = GGGGG), lipid C15DA (C15 diacid); C-terminal OH
B8: Compound 167 (peptide)
peptide: YXEGTFISDYSIALDRXAQXDFVNWLLAQSPSSGAPPPS
modifications: N-terminal Me (Me-Tyr1); Aib at 2, 20; Km = Lys(R) at 17, linker printed GS (read as G5 = GGGGG), lipid C15DA (C15 diacid); C-terminal NH2
B9: Compound 168 (peptide)
peptide: YXEGTFISDYSIALDRXAQXDFVNWLLAQSG
modifications: N-terminal Me (Me-Tyr1); Aib at 2, 20; Km = Lys(R) at 17, linker printed GS (read as G5 = GGGGG), lipid C15DA (C15 diacid); C-terminal OH
B10: Compound 191 (peptide)
peptide: YXEGTFTSDYSIYLDKQAAXEFVNWLLAGGPSSGAPPPSX
modifications: not fully specified; no N-terminal group printed; Aib at 2, 20; Km = Lys(R) at 40, linker not given, lipid C16; C-terminal NH2

What was measured:
[1] = biological target: T1, full-length human GIPR with an …; assay: cell-based or functional assay
[2] = biological target: full-length human GLP-1R with an N-terminal FLAG tag, overexpressed on HEK-293T cells (human, UniProt P43220 24-463); assay: cell-based or functional assay

Binder | Human GIPR cAMP, HEK293T EC50 [1] [pM] | Human GLP1R cAMP HEK293T EC50 [2] [nM]
B1 | 0.1 | 347
B2 | 0.2 | 245
B3 | 0.2 | 145
B4 | 0.3 | 24
Me-Y[Aib]EGTFISDYSIALDR[Aib]K([AEEA-AEEA-γGlu-γGlu-C15 diacid])Q[Aib]NFVNWLLAQSG-OH [Compound 161] | 0.3 | > 1000
Me-Y[Aib]EGTFISDYSIALDR[Aib]K([AEEA-AEEA-γGlu-γGlu-C15 diacid])Q[Aib]DFVNWLLAQRG-OH [Compound 162] | 0.2 | 513
Me-Y[Aib]EGTFISDYSIALDR[Aib]K([AEEA-AEEA-γGlu-γGlu-C15 diacid])Q[Aib]DFVNWLLAQSG-OH [Compound 163] | 0.3 | > 1000
B5 | 0.2 | 9.77
B6 | 0.4 | 85.1
B7 | 0.4 | 89.1
B8 | 0.4 | 41.7
B9 | 0.3 | 17.4
Me-Y[Aib]EGTFISDYSIALDR[Aib]KQ[Aib]DFVNWLLAQRG-OH (not fully specified (residues 1, 18)) [Compound 169] | 0.6 | > 1000
Me-Y[Aib]EGTFISDYSIALDR[Aib]KQ[Aib]DFVNWLLAQSG-OH (not fully specified (residues 1, 18)) [Compound 170] | 0.4 | > 1000
B10 | 4.9 | 
Me-Y[Aib]EGTFISDYSIALDR[Aib]AQ[Aib]KFVNWLLAQKG-OH (not fully specified (residues 1, 21)) [Compound 204] | 0.8 | 
